In series [1] the target is T1, p9CREB peptide substrate, ILSRRPS(p)YR.
T1 chain: ILSRRPSYR

Series [2] has as its target T2, pGS-1 peptide substrate, YRRAAVPPSPSLSRHSSPSQS(p)EDEEE.
T2 chain: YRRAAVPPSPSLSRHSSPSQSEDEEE

The target of series [3] is T3, pIRS-1 peptide substrate, RREGGMSRPAS(p)VDG.
T3 chain: RREGGMSRPASVDG

For series [4], the target named is T4, L803-mts, cell permeable variant of L803 with myristic acid attached to its N-terminal.
T4 chain: GKEAPPAPPQSP

B1: GSK-3β F93A mutant (protein)
chain: MSGRPRTTSFAESCKPVQQPSAFGSMKVSRDKDGSKVTTVVATPGQGPDRPQEVSYTDTKVIGNGSFGVVYQAKLCDSGELVAIKKVLQDKRAKNRELQIMRKLDHCNIVRLRYFFYSSGEKKDEVYLNLVLDYVPETVYRVARHYSRAKQTLPVIYVKLYMYQLFRSLAYIHSFGICHRDIKPQNLLLDPDTAVLKLCDFGSAKQLVRGEPNVSYICSRYYRAPELIFGATDYTSSIDVWSAGCVLAELLLGQPIFPGDSGVDQLVEIIKVLGTPTREQIREMNPNYTEFKFPQIKAHPWTKDSSGTGHFTSGVRVFRPRTPPEAIALCSRLLEYTPTARLTPLEACAHSFFDELRDPNVKLPNGRDTPALFNFTTQELSSNPPLATILIPPHARIQAAASTPTNATAASDANTGDRGQTNNAASASASNST
Regarding B1, the Substrate phosphorylation (% of WTGSK-3β), in vitro kinase assay (% of WT GSK-3β) stood at 46 in series [1], 13 in series [2] and 42 in series [3].

B2: GSK-3β K94A mutant (protein)
chain: MSGRPRTTSFAESCKPVQQPSAFGSMKVSRDKDGSKVTTVVATPGQGPDRPQEVSYTDTKVIGNGSFGVVYQAKLCDSGELVAIKKVLQDKRFANRELQIMRKLDHCNIVRLRYFFYSSGEKKDEVYLNLVLDYVPETVYRVARHYSRAKQTLPVIYVKLYMYQLFRSLAYIHSFGICHRDIKPQNLLLDPDTAVLKLCDFGSAKQLVRGEPNVSYICSRYYRAPELIFGATDYTSSIDVWSAGCVLAELLLGQPIFPGDSGVDQLVEIIKVLGTPTREQIREMNPNYTEFKFPQIKAHPWTKDSSGTGHFTSGVRVFRPRTPPEAIALCSRLLEYTPTARLTPLEACAHSFFDELRDPNVKLPNGRDTPALFNFTTQELSSNPPLATILIPPHARIQAAASTPTNATAASDANTGDRGQTNNAASASASNST
Consider B2, for which the Substrate phosphorylation (% of WTGSK-3β), in vitro kinase assay (% of WT GSK-3β) in series [1] came out at 71; in series [2] it was 19; in series [3], 52.

B3: wild-type (WT) GSK-3β (protein)
chain: MSGRPRTTSFAESCKPVQQPSAFGSMKVSRDKDGSKVTTVVATPGQGPDRPQEVSYTDTKVIGNGSFGVVYQAKLCDSGELVAIKKVLQDKRFKNRELQIMRKLDHCNIVRLRYFFYSSGEKKDEVYLNLVLDYVPETVYRVARHYSRAKQTLPVIYVKLYMYQLFRSLAYIHSFGICHRDIKPQNLLLDPDTAVLKLCDFGSAKQLVRGEPNVSYICSRYYRAPELIFGATDYTSSIDVWSAGCVLAELLLGQPIFPGDSGVDQLVEIIKVLGTPTREQIREMNPNYTEFKFPQIKAHPWTKDSSGTGHFTSGVRVFRPRTPPEAIALCSRLLEYTPTARLTPLEACAHSFFDELRDPNVKLPNGRDTPALFNFTTQELSSNPPLATILIPPHARIQAAASTPTNATAASDANTGDRGQTNNAASASASNST
Consider B3, for which the “in vitro kinase assays using pIRS-1, p9CREB and pGS-1 substrate in the presence or absence of L803-mts (100 µM)” value in series [4] is given as “L803-mts competes with various substrates”.

B4: GSK-3β R92A mutant (protein)
chain: MSGRPRTTSFAESCKPVQQPSAFGSMKVSRDKDGSKVTTVVATPGQGPDRPQEVSYTDTKVIGNGSFGVVYQAKLCDSGELVAIKKVLQDKAFKNRELQIMRKLDHCNIVRLRYFFYSSGEKKDEVYLNLVLDYVPETVYRVARHYSRAKQTLPVIYVKLYMYQLFRSLAYIHSFGICHRDIKPQNLLLDPDTAVLKLCDFGSAKQLVRGEPNVSYICSRYYRAPELIFGATDYTSSIDVWSAGCVLAELLLGQPIFPGDSGVDQLVEIIKVLGTPTREQIREMNPNYTEFKFPQIKAHPWTKDSSGTGHFTSGVRVFRPRTPPEAIALCSRLLEYTPTARLTPLEACAHSFFDELRDPNVKLPNGRDTPALFNFTTQELSSNPPLATILIPPHARIQAAASTPTNATAASDANTGDRGQTNNAASASASNST
On to B4, for which the Substrate phosphorylation (% of WTGSK-3β), in vitro kinase assay (% of WT GSK-3β) in series [1] is 49; in series [2], 41; in series [3], 60.

B5: GSK-3β K91A mutant (protein)
chain: MSGRPRTTSFAESCKPVQQPSAFGSMKVSRDKDGSKVTTVVATPGQGPDRPQEVSYTDTKVIGNGSFGVVYQAKLCDSGELVAIKKVLQDARFKNRELQIMRKLDHCNIVRLRYFFYSSGEKKDEVYLNLVLDYVPETVYRVARHYSRAKQTLPVIYVKLYMYQLFRSLAYIHSFGICHRDIKPQNLLLDPDTAVLKLCDFGSAKQLVRGEPNVSYICSRYYRAPELIFGATDYTSSIDVWSAGCVLAELLLGQPIFPGDSGVDQLVEIIKVLGTPTREQIREMNPNYTEFKFPQIKAHPWTKDSSGTGHFTSGVRVFRPRTPPEAIALCSRLLEYTPTARLTPLEACAHSFFDELRDPNVKLPNGRDTPALFNFTTQELSSNPPLATILIPPHARIQAAASTPTNATAASDANTGDRGQTNNAASASASNST
With B5, the Substrate phosphorylation (% of WTGSK-3β), in vitro kinase assay (% of WT GSK-3β) in series [1] came out at 161; in series [2], 119; in series [3], 140.

B6: GSK-3β D90A mutant (protein)
chain: MSGRPRTTSFAESCKPVQQPSAFGSMKVSRDKDGSKVTTVVATPGQGPDRPQEVSYTDTKVIGNGSFGVVYQAKLCDSGELVAIKKVLQAKRFKNRELQIMRKLDHCNIVRLRYFFYSSGEKKDEVYLNLVLDYVPETVYRVARHYSRAKQTLPVIYVKLYMYQLFRSLAYIHSFGICHRDIKPQNLLLDPDTAVLKLCDFGSAKQLVRGEPNVSYICSRYYRAPELIFGATDYTSSIDVWSAGCVLAELLLGQPIFPGDSGVDQLVEIIKVLGTPTREQIREMNPNYTEFKFPQIKAHPWTKDSSGTGHFTSGVRVFRPRTPPEAIALCSRLLEYTPTARLTPLEACAHSFFDELRDPNVKLPNGRDTPALFNFTTQELSSNPPLATILIPPHARIQAAASTPTNATAASDANTGDRGQTNNAASASASNST
On to B6, for which the Substrate phosphorylation (% of WTGSK-3β), in vitro kinase assay (% of WT GSK-3β) in series [1] stood at 92; in series [2], 83; in series [3] it was 88.

These data come from US20130303441.
